Target: Stargazin-derived probe 12 (Rattus norvegicus, UniProt Q71RJ2, N-acetyl, X=Dab(4-DMAP), NRR added)
Experiment: fluorescence titration

Kd: 10 µM
B1: Shank3 PDZ (protein)
chain: DDKVAILQKRDHEGFGFVLRGAKAETPIEEFTPTPAFPALQYLESVDVEGVAWKAGLRTGDFLIEVNGVNVVKVGHKQVVGLIRQGGNRLVMKVVSVTRKP
